Among the data in patent publication EP4534554A1 (Corregene Biotechnology Co., Ltd., dated 2025) are EC50 Enhancement Factor, EC50 Value (M), JKR9 reporter activation by peptide-loaded T2 cells and EC50 of peptide values, retold here.

Assay [1] concerns the target MAGE-A1 target antigen peptide … presented by HLA-A*02:01 on cells (human). Briefly: cell-based or functional assay. Set-up: EC50 Enhancement Factor: unit not given beside the values.
The target of assay [2] is T1, MAGE-A1 peptide on HLA-A*02:01 (human).
T1 peptide: KVLEYVIKV
Briefly: JKR9 reporter + peptide-loaded T2, 16 h; full-length, on cells.

Assay [3] concerns the target MAGE-A1 target antigen peptide … presented by HLA-A*02:01 on cells (human). Briefly: cell-based or functional assay.
Assay [4] has as its target T1, MAGE-A1 peptide on HLA-A*02:01. The assay can be described thus: JKR9 reporter + peptide-loaded T2, 16 h; full-length, on cells.

Like-named read-outs stand apart in the source and are kept apart here.

B1: ht27M1401 (TCR, V domains shown)
Valpha: GEDVEQSLFLSVREGDSSVINCTYTDSSSTYLYWYKQEPGAGLQLLTYIFSNMDMKQDQRLTVLLNKKDKHLSLRIADTQTGDSAIYFCAGSGGGTDKLIFGTGTRLQVFP
Vbeta: GAVVSQHPSWVICKSGTSVKIECRSLDFQATTMFWYRQFPKQSLMLMATTQPLSKATYEQGVEKDKFLINHASLTLSTLTVTSAHPEDSSFYICSAREPGQGPYEQYFGPGTRLTVT
On to B1, for which, in assay [1], the EC50 Enhancement Factor worked out at 184 and the EC50 Value (M), JKR9 reporter activation by peptide-loaded T2 cells was found to be 9.05e-08 M. The EC50 of peptide in assay [2] was 90.5 nM.

B2: ht27M1362 (TCR, V domains shown)
Valpha: GEDVEQSLFLSVREGDSSVINCTYTDSSSTYLYWYKQEPGAGLQLLTYIFIFQYMKQDQRLTVLLNKKDKHLSLRIADTQTGDSAIYFCAGSGGGTDKLIFGTGTRLQVFP
Vbeta: GAVVSQHPSWVICKSGTSVKIECRSLDFQATTMFWYRQFPKQSLMLMATSNEGSKATYEQGVEKDKFLINHASLTLSTLTVTSAHPEDSSFYICSAREPGQGPYEQYFGPGTRLTVT
With B2, in assay [1], the EC50 Enhancement Factor came to 419 and the EC50 Value (M), JKR9 reporter activation by peptide-loaded T2 cells was determined as 3.99e-08 M. Moreover, in assay [2], the EC50 of peptide amounted to 39.9 nM.

B3: ht27M1436 (TCR, V domains shown)
Valpha: GEDVEQSLFLSVREGDSSVINCTYTDSSSTYLYWYKQEPGAGLQLLTYTFWFMDMKQDQRLTVLLNKKDKHLSLRIADTQTGDSAIYFCAGSGGGTDKLIFGTGTRLQVFP
Vbeta: GAVVSQHPSWVICKSGTSVKIECRSLDFQATTMFWYRQFPKQSLMLMATSNEGSKATYEQGVEKDKFLINHASLTLSTLTVTSAHPEDSSFYICSAREPGQGPYEQYFGPGTRLTVT
B3: in assay [1], the EC50 Enhancement Factor amounted to 82.8 and the EC50 Value (M), JKR9 reporter activation by peptide-loaded T2 cells is 2.02e-07 M. Further, the EC50 of peptide in assay [2] amounted to 202 nM.

B4: ht27M1363 (TCR, V domains shown)
Valpha: GEDVEQSLFLSVREGDSSVINCTYTDSSSTYLYWYKQEPGAGLQLLTYIFNTQDMKQDQRLTVLLNKKDKHLSLRIADTQTGDSAIYFCAGSGGGTDKLIFGTGTRLQVFP
Vbeta: GAVVSQHPSWVICKSGTSVKIECRSLDFQATTMFWYRQFPKQSLMLMATSNEGSKATYEQGVEKDKFLINHASLTLSTLTVTSAHPEDSSFYICSAREPGQGPYEQYFGPGTRLTVT
B4: in assay [1], the EC50 Enhancement Factor was found to be 261 and the EC50 Value (M), JKR9 reporter activation by peptide-loaded T2 cells was 6.4e-08 M. Also, the EC50 of peptide in assay [2] is 64 nM.

B5: ht27M1003 (TCR, V domains shown)
Valpha: GEDVEQSLFLSVREGDSSVINCTYTDSSSTYLYWYKQEPGAGLQLLTYIFSNMDMKQDQRLTVLLNKKDKHLSLRIADTQTGDSAIYFCAGSGGGTDKLIFGTGTRLQVFP
Vbeta: GAVVSQHPSWVICKSGTSVKIECRSLDFQATTMFWYRQFPKQSLMLMATSNEGSKATYEQGVEKDKFLINHASLTLSTLTVTSAHPEDSSFYICSAREPGSGPYEQYFGPGTRLTVT
Turning to B5, in assay [1], the EC50 Enhancement Factor came to 14 and the EC50 Value (M), JKR9 reporter activation by peptide-loaded T2 cells was 1.17e-06 M. Moreover, in assay [2], the EC50 of peptide was found to be 1170 nM.

B6: A1A2-M01-619 (TCR, V domains shown)
Valpha: GEDVEQSLFLSVREGDSSVINCTYTDSSMTYLYWYKQEPGAGLQLLTYIFSFMDMKQDQRLTVLLNKKDKHLSLRIADTQTGDSAIYFCAGSGGGTDKLIFGTGTRLQVFP
Vbeta: GAVVSQHPSWVICKSGTSVKIECRSLDFEATTMFWYRQFPKQSLMLMATTDYGSKATYEQGVEKDKFLINHASLTLSTLTVTSAHPEDSSFYICSAREPGQGPYEQYFGPGTRLTVT
In assay [3], B6 yielded an EC50 Value (M), JKR9 reporter activation by peptide-loaded T2 cells of 2.74e-08 M. For the same molecule, in assay [4], the EC50 of peptide was determined as 27.4 nM.

B7: ht27M1381 (TCR, V domains shown)
Valpha: GEDVEQSLFLSVREGDSSVINCTYVDPYSTYLYWYKQEPGAGLQLLTYIFSNMDMKQDQRLTVLLNKKDKHLSLRIADTQTGDSAIYFCAGSGGGTDKLIFGTGTRLQVFP
Vbeta: GAVVSQHPSWVICKSGTSVKIECRSLDFQATTMFWYRQFPKQSLMLMATSNEGSKATYEQGVEKDKFLINHASLTLSTLTVTSAHPEDSSFYICSAREPGQGPYEQYFGPGTRLTVT
B7: in assay [1], the EC50 Enhancement Factor came to 131 and the EC50 Value (M), JKR9 reporter activation by peptide-loaded T2 cells was 1.28e-07 M. Further, the EC50 of peptide in assay [2] is 128 nM.

B8: A1A2-M01-626 (TCR, V domains shown)
Valpha: GEDVEQSLFLSVREGDSSVINCTYPDMFSTYLYWYKQEPGAGLQLLTYIFAFMQMKQDQRLTVLLNKKDKHLSLRIADTQTGDSAIYFCAGSGGGTDKLIFGTGTRLQVFP
Vbeta: GAVVSQHPSWVICKSGTSVKIECRSLDFPIERMFWYRQFPKQSLMLMATTDYGSKATYEQGVEKDKFLINHASLTLSTLTVTSAHPEDSSFYICSAREPGQGPFEQYFGPGTRLTVT
Turning to B8, the EC50 Value (M), JKR9 reporter activation by peptide-loaded T2 cells in assay [3] amounted to 2.26e-08 M. For the same molecule, the EC50 of peptide in assay [4] came to 22.6 nM.

B9: ht27M1418 (TCR, V domains shown)
Valpha: GEDVEQSLFLSVREGDSSVINCTYTDSSSTYLYWYKQEPGAGLQLLTYGTWLMDMKQDQRLTVLLNKKDKHLSLRIADTQTGDSAIYFCAGSGGGTDKLIFGTGTRLQVFP
Vbeta: GAVVSQHPSWVICKSGTSVKIECRSLDFQATTMFWYRQFPKQSLMLMATSNEGSKATYEQGVEKDKFLINHASLTLSTLTVTSAHPEDSSFYICSAREPGQGPYEQYFGPGTRLTVT
Turning to B9, in assay [1], the EC50 Enhancement Factor is 1650 and the EC50 Value (M), JKR9 reporter activation by peptide-loaded T2 cells amounted to 1.01e-08 M. Also, in assay [2], the EC50 of peptide was found to be 10.1 nM.

B10: ht27M1360 (TCR, V domains shown)
Valpha: GEDVEQSLFLSVREGDSSVINCTYTDSSSTYLYWYKQEPGAGLQLLTYIFGFDTMKQDQRLTVLLNKKDKHLSLRIADTQTGDSAIYFCAGSGGGTDKLIFGTGTRLQVFP
Vbeta: GAVVSQHPSWVICKSGTSVKIECRSLDFQATTMFWYRQFPKQSLMLMATSNEGSKATYEQGVEKDKFLINHASLTLSTLTVTSAHPEDSSFYICSAREPGQGPYEQYFGPGTRLTVT
Take B10: in assay [1], the EC50 Enhancement Factor is 277 and the EC50 Value (M), JKR9 reporter activation by peptide-loaded T2 cells came to 6.04e-08 M. Moreover, the EC50 of peptide in assay [2] came to 60.4 nM.

B11: ht27M1365 (TCR, V domains shown)
Valpha: GEDVEQSLFLSVREGDSSVINCTYTDSSSTYLYWYKQEPGAGLQLLTYIFSFTYMKQDQRLTVLLNKKDKHLSLRIADTQTGDSAIYFCAGSGGGTDKLIFGTGTRLQVFP
Vbeta: GAVVSQHPSWVICKSGTSVKIECRSLDFQATTMFWYRQFPKQSLMLMATSNEGSKATYEQGVEKDKFLINHASLTLSTLTVTSAHPEDSSFYICSAREPGQGPYEQYFGPGTRLTVT
With B11, in assay [1], the EC50 Enhancement Factor was 165 and the EC50 Value (M), JKR9 reporter activation by peptide-loaded T2 cells was 1.01e-07 M. Also, the EC50 of peptide in assay [2] stood at 101 nM.

B12: ht27M1374 (TCR, V domains shown)
Valpha: GEDVEQSLFLSVREGDSSVINCTYTDSTDILLYWYKQEPGAGLQLLTYIFSNMDMKQDQRLTVLLNKKDKHLSLRIADTQTGDSAIYFCAGSGGGTDKLIFGTGTRLQVFP
Vbeta: GAVVSQHPSWVICKSGTSVKIECRSLDFQATTMFWYRQFPKQSLMLMATSNEGSKATYEQGVEKDKFLINHASLTLSTLTVTSAHPEDSSFYICSAREPGQGPYEQYFGPGTRLTVT
On to B12, for which, in assay [1], the EC50 Enhancement Factor was found to be 153 and the EC50 Value (M), JKR9 reporter activation by peptide-loaded T2 cells amounted to 1.09e-07 M. In addition, in assay [2], the EC50 of peptide was found to be 109 nM.
